Patent US10047345B2, “Culturing of mesenchymal stem cells with FGF4 and nicotinamide” (Gamida-Cell Ltd., priority 2012, dated 2018)
“Also recorded” adds a separate entry of the source.

Legend:
MSCs = settings: cited from earlier work
mesenchymal stem cells [1] = experiment: Percent of MSC (CD105+CD45-) by FACS; assay type: cell-based, human; settings: NAM 5 mM, FGF4 50 ng/ml, PDGF-BB 50 ng/ml
Description: At different time points the cells were detached with 0.25% trypsin-EDTA. The cells were washed with a PBS solution containing 1% BSA, and stained (at 4° C. for 30 min) with either fluorescein isothiocyanate (FITC) or phycoerythrin (PE)-conjugated antibodies: 105 PE, 105 FITC (Serotec, Raleigh, N.C.), 45 FITC, 14 FITC, HLA-DR FITC, 106 PE, 31 PE (BD, Franklin Lakes N.J.), 34 PE (Dako, Glostrup, Denmark), 73 PE, HLA class1 PE, 49b PE (Pharmingen, San Diego, Calif.), 29 PE, 44 PE, 54 FITC, 59 PE, 90 PE (BioLegend, San Diego, Calif.). […]
The cells were then washed in the above buffer and analyzed using a FACScalibur® flow cytometer (Becton Dickinson, Franklin Lakes N.J.). […] Emission of 10000 cells was measured using logarithmic amplification, and analyzed using the CellQuest software (Becton Dickinson). Cells stained with FITC- and PE-conjugated isotype control antibodies were used to determine background fluorescence.
(§1) Mesenchymal stem cells were selected and cultured in the presence of particular growth factors (basic fibroblast growth factor—bFGF, heparin binding epidermal growth factor—HB-EGF, fibroblast growth factor 4—FGF-4 and platelet derived growth factor, homodimer, subunit B, PDGF-BB) in the presence and absence of nicotinamide for three or four passages and the number and size of the cells was calculated.

mesenchymal stem cells [2] = experiment: Cell size of cultured MSCs (Cedex cell counter); assay type: cell-based, human; settings: between days 10-32 of culture
Description: Cell size was measured using Cedex Automated Cell Counter (Innovatis). The cells were diluted 1:2 in Trypan Blue (Sigma) and cell size was measured automatically under microscope.
as §1

[3] = test system: umbilical cord-derived CD133+ hematopoietic stem cells; experiment: Differentiation and proliferation of ex-vivo cultured hematopoietic stem cells (FACS surface markers); assay type: cell-based
Description: Umbilical cord-derived hematopoietic stem cells were isolated using CD133 microbeads and CliniMACS® separator (Miltenyi, Inc. Auburn, Calif.), and cultured for 3 weeks in MEMα supplemented with 50 ng/ml TPO, IL6, SCF, Flt3, fetal bovine serum, ±2.5 or 5 mM nicotinamide, and/or 10, 50 or 200 ng/ml FGF4. After 3 weeks in culture the cells were stained for surface markers (CD38, CD133, CD33, CD19) and the cell populations determined by FACS analysis (see below). Results are expressed as percentage of total population assayed.
At different time points the cells were detached with 0.25% trypsin-EDTA. The cells were washed with a PBS solution containing 1% BSA, and stained (at 4° C. for 30 min) with either fluorescein isothiocyanate (FITC) or phycoerythrin (PE)-conjugated antibodies: 105 PE, 105 FITC (Serotec, Raleigh, N.C.), 45 FITC, 14 FITC, HLA-DR FITC, 106 PE, 31 PE (BD, Franklin Lakes N.J.), 34 PE (Dako, Glostrup, Denmark), 73 PE, HLA class1 PE, 49b PE (Pharmingen, San Diego, Calif.), 29 PE, 44 PE, 54 FITC, 59 PE, 90 PE (BioLegend, San Diego, Calif.). CD133—(AC141) PE (Miltenyi, Auburn, Calif.), CD38 FITC (Dako, Glostrup, Denmark), CD19 FITC (BD Biosciences, Franklin Lakes N.J.), CD33 FITC (BD Bioscience, Franklin Lakes N.J.).
The cells were then washed in the above buffer and analyzed using a FACScalibur® flow cytometer (Becton Dickinson, Franklin Lakes N.J.). The cells were passed at a rate of up to 1000 cells/second, using a 488 nm argon laser beam as the light source for excitation. Emission of 10000 cells was measured using logarithmic amplification, and analyzed using the CellQuest software (Becton Dickinson). Cells stained with FITC- and PE-conjugated isotype control antibodies were used to determine background fluorescence.
Umbilical cord-derived CD133+ hematopoietic stem cells were isolated and cultured for 3 weeks in medium supplemented with early-acting growth factors and fetal bovine serum, nicotinamide and/or FGF4. After 3 weeks in culture the cells were stained for surface markers (CD38, CD133, CD19) and the cell populations determined by FACS analysis. Cell proliferation was assessed by counting total cells at three weeks.

Molecule: EGF: Epidermal growth factor
- increase in the number of colony-forming units of MSCs (MSCs; Tamama et al. 2010): 25%

B1: PDGF-BB: platelet derived growth factor, homodimer, subunit B (protein, UniProt P01127 82-190, looked up)
Platelet-derived growth …: SLGSLTIAEPAMIAECKTRTEVFEISRRLIDRTNANFLVWPPCVEVQRCSGCCNNRNVQCRPTQVQLRPVQVRKIEIVRKKPIFKKATVTLEDHLACKCETVAAARPVT
- fraction of MSC (CD105+CD45-) versus cells other than MSCs in the culture (mesenchymal stem cells [1]): contaminated with a higher fraction of cells other than MSCs

B2: FGF4: Fibroblast growth factor 4, the FGF4 gene product, a 176 AA long protein (protein, UniProt P08620 31-206, looked up)
Fibroblast growth factor 4: APTAPNGTLEAELERRWESLVALSLARLPVAAQPKEAAVQSGAGDYLLGIKRLRRLYCNVGIGFHLQALPDGRIGGAHADTRDSLLELSPVERGVVSIFGVASRFFVAMSSKGKLYGSPFFTDECTFKEILLPNNYNAYESYKYPGMFIALSKNGKTKKGNRVSPTMKVTHFLPRL
- cell diameter of cultured MSCs (mesenchymal stem cells [2]): greater than 20 μm
- degree of differentiation of hematopoietic progenitor cells (CD38 and CD133-expressing fraction) ([3]; 3 weeks culture, nicotinamide 2.5 or 5 mM, FGF4 10 to 200 ng/ml): without any effect on the degree of differentiation; also recorded: neither improved nor reduced
- total cell proliferation in hematopoietic cultures ([3]; 3 weeks, FGF4 with or without nicotinamide, results not shown): without any discernible effect
- fraction of undifferentiated early progenitors (CD38-CD133+) ([3]; 3 weeks, FIG. 35): absence of any significant effect
- differentiation (CD38+ cells) ([3]; 3 weeks, FIG. 36): absence of any significant effect
- myeloid lineage differentiation (CD33+ cells) ([3]; 3 weeks, FIG. 37): moderate enhancement
- lymphoid lineage differentiation (CD19+ cells) ([3]; 3 weeks, FIG. 38): absence of any significant effect
- abundance of committed myeloid or lymphoid cells (CD33, CD19) ([3]; three week cultures): without any effect

B3: BMP-3: member of the transforming growth factor beta family (protein, UniProt P12645 363-472, looked up)
Bone morphogenetic protein 3: QWIEPRNCARRYLKVDFADIGWSEWIISPKSFDAYYCSGACQFPMPKSLKPSNHATIQSIVRAVGVVPGIPEPCCVPEKMSSLSILFFDENKNVVLKVYPNMTVESCACR
- increase of MSC proliferation (MSCs; Stewart et al. 2010): threefold
